Assay results: patent US20260008862A1, “Bispecific Anti-BCMA x Anti-CD3 Antibodies and Uses Thereof” (Regeneron Pharmaceuticals, Inc., priority 2018, published 2026)

B1: REGN4515: anti-BCMA antibody, HCVR/LCVR SEQ ID NOs 50/58 (antibody, V domains shown)
VH: QVQLVESGGGLVKPGGSLRLSCAASGFTFSDYYISWIRQAPGKGLEWVSYISSSGSSIKYADSVKGRFTISRDNAKNSLYLQMNSLRAEDTAVYYCAREGGNYGMDVWGQGTTVTVSS
VL: DIQMTQSPSSVSASVGDRVTITCRASQGINNWLVWYQQKPGKAPKLLIYAATSLQSGVPSRFSGSGSGTDFTLTISSLQPEDFATYYCQQANSFPPTFGQGTKLEIK
B2: REGN4514: anti-BCMA antibody, HCVR/LCVR SEQ ID NOs 34/42 (antibody, V domains shown)
VH: EVQLVESGGGLVQPGRSLRLSCAASGFTFDDYAMHWVRQAPGKGLEWVSGISWNSGNMGYADSVKGRFTISRDNAKNSLFLQMHSLRAEDTAFYYCAKVRLTAFDFWGQGTLVTVSS
VL: DIQMTQSPSSLSASVGDRVTITCRTSQSIGNYLNWFQQKPGKAPKLLIYTASSLQNGVPSRFTGSGSGTDFTLTISSLQPEDFVIYYCQQSFSTPYTFGQGTKLEIK
B3: mAb16711: anti-BCMA antibody, HCVR/LCVR SEQ ID NOs 2/10 (antibody, V domains shown)
VH: QVQLVESGGGVVQPGRSLRLSCAASGFTFSTYGIHWVRQAPGKGLEWVAVILHDGSSNYYAESVKGRFIISRDNSKNTLYLQMNSLRAEDTALYYCTKRYSEAAGPNWFDPWGQGTLVTVSS
VL: DIQMTQSPSSVSASVGDRVTITCRASRGISSWLAWYQQKPGKAPKLLIHAASSLQSGVPSRFSGSGSGTDFTLTISSLQPEDFATYYCQQAISFPFTFGPGTKVDIK

What was measured:
[1] = target: T1, surface BCMA on H929 cells (Homo sapiens, UniProt Q02223); test: FACS surface BCMA after overnight incubation, NCI-H929; type: cell-based; details: range over detecting anti-BCMA antibodies
T1 construct: human cell lines which express endogenous BCMA (e.g., NCI-H929); endogenous in cells; host or cells: multiple myeloma cell lines H929
T1 sequence (Q02223 whole entry): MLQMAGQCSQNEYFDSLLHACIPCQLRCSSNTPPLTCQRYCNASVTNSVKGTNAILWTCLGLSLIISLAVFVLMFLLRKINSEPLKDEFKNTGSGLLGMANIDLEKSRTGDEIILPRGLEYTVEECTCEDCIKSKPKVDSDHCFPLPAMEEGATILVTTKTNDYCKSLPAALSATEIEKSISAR
Description: (§1) Flow cytometric analysis was utilized to determine the impact of overnight incubation of multiple myeloma cell lines with anti-BCMA antibodies on the level of surface BCMA. […] After 18 hours, wells were washed with cold FACS wash (PBS+1% filtered FBS) and resuspended in 667 nM of the same anti-BCMA antibody in cold stain buffer (Miltenyi 130-091-221) for 30 minutes on ice. After incubation, the cells were washed twice with cold FACS wash (PBS+1% filtered FBS) and bound antibody was detected by incubating with the appropriate anti-human secondary antibody (anti-hIgG or anti-HIS) on ice for an additional 30-45 minutes. After incubation, cells were washed, re-suspended in 200 μL cold PBS containing 1% filtered FBS and analyzed by flow cytometry on a BD FACS Canto II. Fold increase in staining was calculated by dividing the MFI of stained cells previously incubated overnight in BCMA abs or DAPT by the MFI of stained cells that were incubated overnight in media only.

[2] = target: surface BCMA on MM1.S cells (Homo sapiens, UniProt Q02223); test: FACS surface BCMA after overnight incubation, MM1S; type: cell-based; details: MM.1 S
Chain of surface BCMA on MM1.S cells (Q02223 whole entry): as above
Description: as §1

[3] = target: T2, surface BCMA on U266 cells (Homo sapiens, UniProt Q02223); test: FACS surface BCMA after overnight incubation, U266; type: cell-based; details: range over detecting anti-BCMA antibodies
T2 construct: human cell lines which express endogenous BCMA; endogenous in cells; host or cells: multiple myeloma cell lines U266
T2 sequence (Q02223 whole entry): as above
Description: as §1

[4] = target: surface BCMA on Molp8 cells (Homo sapiens, UniProt Q02223); test: FACS surface BCMA after overnight incubation, Molp8; type: cell-based; details: range over detecting anti-BCMA antibodies
Chain of surface BCMA on Molp8 cells (Q02223 whole entry): as above
Description: as §1

[5] = system: monkey BCMA-MMH; test: SPR (Biacore 4000) binding kinetics to monkey BCMA-MMH; details: 25° C.; 90 nM antigen
Chain of monkey BCMA-MMH (as listed by the source): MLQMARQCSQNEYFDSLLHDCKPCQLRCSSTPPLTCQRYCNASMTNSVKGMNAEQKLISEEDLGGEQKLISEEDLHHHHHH
Description: (§2) The CM5 Biacore sensor surface was derivatized by amine coupling with a monoclonal mouse anti-human Fc antibody (GE, #BR-11008-39) to capture purified anti-BCMA mAbs and anti-BCMA×anti-CD3 bispecific mAbs. All Biacore binding studies were performed in a buffer composed of 0.01 M HEPES pH 7.4, 0.15M NaCl, 3 mM EDTA, 0.05% v/v Surfactant P20 (HBS-ET running buffer). […] Antigen samples were then injected over the anti-BCMA and anti-BCMA×anti-CD3 bispecific mAbs captured surfaces at a flow rate of 30 μL/minute. Antibody-reagent association was monitored for 5 minutes while dissociation in HBS-ET running buffer was monitored for 10 minutes. All of the binding kinetics experiments were performed at 25° C. Kinetic association (ka) and dissociation (kd) rate constants were determined by fitting the real-time sensorgrams to a 1:1 binding model using Scrubber 2.0c curve fitting software. Binding dissociation equilibrium constants (KD) and dissociative half-lives (t½) were calculated from the kinetic rate constants as: […]

[6] = target: T3, human BCMA-MMH (Homo sapiens, UniProt Q02223); test: SPR (Biacore 4000) binding kinetics to human BCMA-MMH; details: 25° C.
T3 construct: (human BCMA-MMH); myc-myc-hexahistidine (C); made in house
T3 sequence (Q02223 with tags, fused parts or gaps): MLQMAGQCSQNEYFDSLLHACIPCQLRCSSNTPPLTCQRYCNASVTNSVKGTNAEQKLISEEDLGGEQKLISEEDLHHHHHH
Description: as §2

[7] = target: T4, human BCMA-MFC (Homo sapiens, UniProt Q02223); test: SPR (Biacore 4000) binding kinetics to human BCMA-MFC; details: 25° C.
T4 construct: (human BCMA-MFC); made in house
T4 sequence (Q02223 with tags, fused parts or gaps): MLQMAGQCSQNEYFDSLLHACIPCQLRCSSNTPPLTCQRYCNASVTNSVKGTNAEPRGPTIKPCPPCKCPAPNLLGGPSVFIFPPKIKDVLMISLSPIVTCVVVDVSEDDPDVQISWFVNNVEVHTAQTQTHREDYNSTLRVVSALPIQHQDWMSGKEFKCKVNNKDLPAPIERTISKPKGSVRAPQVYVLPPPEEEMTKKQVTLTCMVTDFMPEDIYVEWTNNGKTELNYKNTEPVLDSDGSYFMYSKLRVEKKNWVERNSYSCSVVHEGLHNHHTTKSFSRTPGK
Description: as §2

[8] = system: mouse BCMA-MFC; test: SPR (Biacore 4000) binding kinetics to mouse BCMA-MFC; details: 25° C.
Chain of mouse BCMA-MFC (as listed by the source): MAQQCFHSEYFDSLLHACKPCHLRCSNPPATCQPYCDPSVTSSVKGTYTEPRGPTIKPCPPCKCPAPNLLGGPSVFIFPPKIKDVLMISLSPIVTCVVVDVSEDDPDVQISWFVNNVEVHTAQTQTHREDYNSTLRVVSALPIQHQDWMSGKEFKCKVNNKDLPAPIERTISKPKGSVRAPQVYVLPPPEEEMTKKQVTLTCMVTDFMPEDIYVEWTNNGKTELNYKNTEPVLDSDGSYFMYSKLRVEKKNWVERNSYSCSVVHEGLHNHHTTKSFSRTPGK
Description: as §2

[9] = system: monkey BCMA-MFC; test: SPR (Biacore 4000) binding kinetics to monkey BCMA-MFC; details: 25° C.
Chain of monkey BCMA-MFC (as listed by the source): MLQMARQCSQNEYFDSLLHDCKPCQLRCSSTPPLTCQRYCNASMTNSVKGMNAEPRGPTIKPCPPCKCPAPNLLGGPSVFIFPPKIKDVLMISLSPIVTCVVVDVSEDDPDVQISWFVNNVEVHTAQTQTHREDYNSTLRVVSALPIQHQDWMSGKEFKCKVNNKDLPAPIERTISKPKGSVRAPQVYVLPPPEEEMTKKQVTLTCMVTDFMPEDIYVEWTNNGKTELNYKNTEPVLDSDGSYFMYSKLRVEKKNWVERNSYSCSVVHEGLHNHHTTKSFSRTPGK
Description: as §2

| Molecule | fold increase in MFI of BCMA over cells incubated in media only [1] | fold increase in MFI of BCMA over cells incubated in media only [2] [fold] | fold increase in MFI of BCMA over cells incubated in media only [3] | fold increase in MFI of BCMA over cells incubated in media only [4] | 90 nM mfBCMA.mmh Bind (RU) [5] [RU] | ka [6] [M⁻¹ s⁻¹] | kd [6] [s⁻¹] | ka [7] [M⁻¹ s⁻¹] | kd [7] [s⁻¹] | ka [8] [M⁻¹ s⁻¹] | kd [8] [s⁻¹] | ka [9] [M⁻¹ s⁻¹] | kd [9] [s⁻¹] |
| --- | --- | --- | --- | --- | --- | --- | --- | --- | --- | --- | --- | --- | --- |
| C[C@H](NC(=O)Cc1cc(F)cc(F)c1)C(=O)N[C@H](C(=O)OC(C)(C)C)c1ccccc1 [DAPT] | 2.3-4 fold | 11.9 | 5.3-9.0 fold | 2.4-8.6 fold | – | – | – | – | – | – | – | – | – |
| B1 | – | – | – | – | 1.9 | 869000 | 0.00247 | 1.41e+06 | 8.95e-05 | 947000 | 0.00418 | 2.13e+06 | 0.00716 |
| B2 | – | – | – | – | 1.1 | 1.06e+06 | 0.00285 | 1.07e+06 | 4.53e-05 | 397000 | 0.000269 | 492000 | 0.00724 |
| B3 | – | – | – | – | – | 2.01e+06 | 0.00347 | 1.85e+06 | 0.00019 | 1.07e+06 | 0.0011 | – | – |
